One assay concerns the target T1, human LILRB2 (human, UniProt Q8N423 22-460, limits assumed).
T1 construct: also called hLILRB2
Nature of the assay: Octet off-rate ranking.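 Note: antibody dissociation rate constants against cynomolgus LILRB2 plus human LILRB1, LILRB2, LILRA1 and LILRA2, measured on an Octet instrument to rank binding.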

In another assay the target is T2, human LILRB1 (human, UniProt Q8NHL6 24-458, limits assumed).
T2 construct: also called hLILRB1
As to the kind of experiment: Octet off-rate ranking.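 Note: antibody dissociation rate constants against cynomolgus LILRB2 plus human LILRB1, LILRB2, LILRA1 and LILRA2, measured on an Octet instrument to rank binding.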 Background: BLI is a label-free optical method that tracks binding on a fibre tip over time.

Assay [1] deals with T3, human LILRB1 expressed on CHOK1 cells (CHOK1-hLILRB1) (human, UniProt Q8NHL6 24-650).
T3 construct: whole, on cells; also called CHOK1-LILRB1
As to the kind of experiment: FACS binding to CHOK1-hLILRB1 cells. In general terms: A flow cytometer gives signals particle by particle.

The target of assay [2] is T4, human LILRB2 expressed on CHOK1 cells (CHOK1-hLILRB2) (human, UniProt Q8N423 22-597).
T4 construct: whole, on cells; also called CHOK1-LILRB2
Nature of the assay: FACS binding to CHOK1-hLILRB2 cells.

The target in assay [3] is T3, human LILRB1 expressed on CHOK1 cells …. As to the kind of experiment: cell based RBA, flow cytometry: blocking of HLA-G binding to CHOK1-hLILRB1 cells.
The next assay concerns the target T5, human LILRB2-his (human, UniProt Q8N423 22-460, limits assumed).
T5 construct: Analyte of the Biacore run; not shown: His tag
Nature of the assay: SPR (Biacore 8K), antibody captured via Fc, LILRB2-his as analyte, 1:1 model. Background: In SPR one partner is held on a chip, and binding of the other changes the refractive index at the surface.

The target in a further assay is T6, human LILRB1-his (human, UniProt Q8NHL6 24-458, limits assumed).
T6 construct: Analyte of the Biacore run; not shown: His tag
Nature of the assay: SPR (Biacore 8K), antibody captured via Fc, LILRB1-his as analyte, 1:1 model.

Where a chain is given by its changes, count along the chain named.

T3 sequence (Q8NHL6 24-650): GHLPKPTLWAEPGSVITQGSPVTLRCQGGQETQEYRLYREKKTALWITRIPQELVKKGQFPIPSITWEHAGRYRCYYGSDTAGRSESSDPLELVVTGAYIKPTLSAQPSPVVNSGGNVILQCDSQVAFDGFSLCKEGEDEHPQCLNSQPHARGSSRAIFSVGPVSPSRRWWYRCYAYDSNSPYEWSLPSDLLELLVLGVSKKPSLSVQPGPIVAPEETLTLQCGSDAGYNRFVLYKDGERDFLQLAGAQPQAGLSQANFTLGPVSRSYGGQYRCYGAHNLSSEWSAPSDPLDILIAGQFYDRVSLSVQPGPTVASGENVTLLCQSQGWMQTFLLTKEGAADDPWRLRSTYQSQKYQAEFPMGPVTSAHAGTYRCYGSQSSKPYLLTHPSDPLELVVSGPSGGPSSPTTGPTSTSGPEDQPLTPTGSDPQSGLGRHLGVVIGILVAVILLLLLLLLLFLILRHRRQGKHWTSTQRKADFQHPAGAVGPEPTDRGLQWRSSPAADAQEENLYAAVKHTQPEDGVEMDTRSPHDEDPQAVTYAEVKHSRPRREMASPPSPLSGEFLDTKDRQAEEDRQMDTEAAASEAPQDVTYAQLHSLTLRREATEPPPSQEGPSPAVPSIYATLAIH
T4 sequence (Q8N423 22-597): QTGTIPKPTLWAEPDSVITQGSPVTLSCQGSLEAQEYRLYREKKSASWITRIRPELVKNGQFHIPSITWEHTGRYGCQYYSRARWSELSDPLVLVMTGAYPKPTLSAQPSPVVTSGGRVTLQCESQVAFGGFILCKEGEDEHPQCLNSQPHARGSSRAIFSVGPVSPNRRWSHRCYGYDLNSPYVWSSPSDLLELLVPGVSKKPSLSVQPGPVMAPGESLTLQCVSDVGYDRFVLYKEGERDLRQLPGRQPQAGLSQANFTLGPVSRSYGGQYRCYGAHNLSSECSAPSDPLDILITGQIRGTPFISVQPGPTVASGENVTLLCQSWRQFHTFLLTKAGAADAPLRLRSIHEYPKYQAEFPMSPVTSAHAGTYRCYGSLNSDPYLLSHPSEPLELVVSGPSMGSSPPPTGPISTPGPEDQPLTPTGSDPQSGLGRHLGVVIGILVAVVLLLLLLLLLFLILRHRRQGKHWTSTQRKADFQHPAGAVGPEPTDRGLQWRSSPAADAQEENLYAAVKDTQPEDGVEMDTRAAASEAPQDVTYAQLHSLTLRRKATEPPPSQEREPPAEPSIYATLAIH
T2 sequence (Q8NHL6 24-458 limits assumed): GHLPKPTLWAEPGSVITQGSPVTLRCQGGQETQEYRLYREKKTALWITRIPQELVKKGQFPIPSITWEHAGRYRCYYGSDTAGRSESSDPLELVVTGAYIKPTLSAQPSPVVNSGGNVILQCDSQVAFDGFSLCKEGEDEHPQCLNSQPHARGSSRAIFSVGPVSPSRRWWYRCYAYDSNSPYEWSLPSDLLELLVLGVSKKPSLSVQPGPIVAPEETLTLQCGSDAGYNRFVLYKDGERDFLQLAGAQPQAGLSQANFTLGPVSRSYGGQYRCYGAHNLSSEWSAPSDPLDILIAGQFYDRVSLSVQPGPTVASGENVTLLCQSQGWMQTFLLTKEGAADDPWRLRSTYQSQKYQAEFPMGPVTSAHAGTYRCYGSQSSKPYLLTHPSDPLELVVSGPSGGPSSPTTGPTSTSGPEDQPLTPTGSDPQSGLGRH
T6 sequence (Q8NHL6 24-458 limits assumed): as above
T1 sequence (Q8N423 22-460 limits assumed): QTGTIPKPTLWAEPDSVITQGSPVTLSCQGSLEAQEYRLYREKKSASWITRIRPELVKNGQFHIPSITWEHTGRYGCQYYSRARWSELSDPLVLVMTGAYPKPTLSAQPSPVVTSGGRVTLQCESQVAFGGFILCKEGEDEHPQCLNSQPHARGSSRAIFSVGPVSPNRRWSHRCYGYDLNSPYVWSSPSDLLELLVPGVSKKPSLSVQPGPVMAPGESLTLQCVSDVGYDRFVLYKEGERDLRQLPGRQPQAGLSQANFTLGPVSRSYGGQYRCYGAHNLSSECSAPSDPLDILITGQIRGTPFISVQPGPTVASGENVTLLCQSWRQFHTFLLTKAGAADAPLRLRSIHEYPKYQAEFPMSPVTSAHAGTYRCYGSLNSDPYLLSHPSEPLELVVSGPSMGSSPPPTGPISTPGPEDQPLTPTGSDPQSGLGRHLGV
T5 sequence (Q8N423 22-460 limits assumed): as above
Description for human LILRB1-his: (§1) For affinity ranking, antibodies were captured on the sensor chip through Fc capture method. LILRB1-his, LILRB2-his or LILRA2-his was used as the analyte. The surface was regenerated before the injection of another antibody. The process was repeated until all antibodies were analyzed. The off-rates were obtained from fitting the experimental data locally to 1:1 interaction model using the Biacore 8K evaluation software. The data of dissociation (kd) and association (ka) rate constants were obtained using Biacore 8K evaluation software. The equilibrium dissociation constants (KD) were calculated from the ratio of kd over ka. The antibodies were ranked by their dissociation rate constant kd.
Description for human LILRB2-his: as §1

B1: LK-RB1-39 (antibody, human IgG4 S228P, kappa, V domains shown)
VH: EVQLQQSGAELVRPGASVKLSCTASGFNIKDDYVHWVNQRPEQGLEWIGWIDPENGDTGYASKFQDKATITADTSSNTAYLHLSSLTSEDTAVYYCTTTRWTGSYWGQGTTLTVSS
VL: QIVLTQSPAIMSASPGEKVTITCSASSSVNYMHWFQQKPGSSPKLWIYSTANLASGVPARFSGSGSGTSYSLTISRMEAEDAATYYCQQRSSYPPTWTFGGGTKLEIKR
For orientation: koff means the first-order rate constant of dissociation. Turning to B1, the koff with human LILRB2 was 0.00153 s⁻¹; in the assay with human LILRB1, 4.64e-05 s⁻¹.

B2: LK-RB2-8 (antibody, human IgG4 S228P, kappa, V domains shown)
VH: QIQLVQSGPELKKPGETVKISCKASGYSFASYGMGWVKQAPGKGLKWLGWINTHSGVPTYADDFKGRFAFSLETSASTAYLQINNLKNEDTATYFCAHYGRPWFPYWGQGTLVTVSA
VL: DIQMTQSPASLSASVGETVTITCRTSENIYSYLAWYQQKQGKSPQLLVYNAKSLAEGVPSRFSGSGSGTQFSLRINSLQPEDFGTYYCQQHYETPLTFGAGTKLELKR
By EC50 is commonly meant the concentration at which the effect is half-maximal. A low value points to a more potent agent. For B2, the EC50 stood at 4.55 nM in assay [1], 7.23 nM in assay [2] and 1.32 nM in assay [3]. In assay [3], the “Top Inhibition” value is 32.7%.

B3: LK-RB2-16 (antibody, human IgG4 S228P, kappa, V domains shown)
VH: B2 VH with S28T, A30T, S31T, G42E, L48M, H54N, V57A, A61G, P105A
VL: B2 VL with T25A, Q37H, K42E, S53T, R74K, T85S, Q90H, E93N, T94I
As to B3, the koff with human LILRB2 turned out to be 5.5e-05 s⁻¹; in the assay with human LILRB1, 0.000238 s⁻¹.

B4: LK-RB2-8 (antibody, human IgG4 S228P, kappa, V domains shown)
VH: B2 VH
VL: B2 VL
Take B4: the values for the off-rate (koff) with human LILRB2 and in the assay with human LILRB1 were 1e-07 s⁻¹ and 4.85e-05 s⁻¹, respectively.

B5: LK-RB2-5 (antibody, human IgG4 S228P, kappa, V domains shown)
VH: QIQLVQSGPELKKPGETVKISCKASGYTFTTYGMSWVKQAPGKGLKWMGWINTYSGVPTYADDFKGRFAFSLETSVSTAYLQINNLKNEDTATYFCARRDGYDGGGNFDYWGQGTTLTVSS
VL: DIVMTQSPATLSVTPGDRVSLSCRASQSISDYLHWYQQKSHESPRLLIKYASQSISGIPSRFSGSGSGSDFTLSINSVEPEDVGVYYCQNGHGFPWTFGGGTKLEIKR
Turning to B5, the EC50 in assay [1] stood at 1.34 nM; in assay [2], 0.27 nM; in assay [3], 2.86 nM. For the same molecule, the “Top Inhibition” value in assay [3] stood at 70.8%.

B6: LK-RB2-24 (antibody, human IgG4 S228P, kappa, V domains shown)
VH: QIQLVQSGPEVKKPGETVKISCKASGYTFTTYGMSWVKQAPGKGLKWMGWLNIYSGVPAYADDFKGRFAFSLESSASTAYLQINNLKNEDTATYFCARRENYDGYGMDYWGQGTSVTVSS
VL: B5 VL with G93S, W96Y
Take B6: the koff in the assay with human LILRB2 amounted to 0.000244 s⁻¹; with human LILRB1, 0.000205 s⁻¹.

B7: LK-RB2-24.h2 (antibody, human IgG4, kappa, V domains shown)
VH: QVQLVQSGSELKKPGASVKVSCKASGYTFTTYGMSWVKQAPGQGLKWMGWLNIYSGVPAYADDFKGRFVFSLDTSASTAYLQISSLKAEDTAVYFCARRENYDGYGMDYWGQGTLVTVSS
VL: EIVLTQSPATLSLSPGERATLSCRASQSISDYLHWYQQKPGQAPRLLIKYASQSISGIPSRFSGSGSGTDFTLTISSLEPEDFAVYYCQNGHSFPYTFGGGTKLEIKR
notes: Humanized form of LK-RB2-24
Broadly, the Kd is the equilibrium constant for the complex coming apart. Read a high Kd as weaker binding. One may read the kon as a measure of how fast the partners come together. Consider B7, for which, in the assay with human LILRB2-his, the Kd turned out to be 1.01 nM, the koff came to 0.000871 s⁻¹ and the kon amounted to 860000 M⁻¹ s⁻¹. In the assay with human LILRB1-his, this molecule showed a Kd of 31.6 nM, a koff of 0.00582 s⁻¹ and a kon of 184000 M⁻¹ s⁻¹.

B8: LK-RB2-24.h1 (antibody, human IgG4, kappa, V domains shown)
VH: B7 VH
VL: B7 VL with S60A
notes: Humanized form of LK-RB2-24
In the assay with human LILRB2-his, B8 displayed a Kd of 0.836 nM, a koff of 0.000758 s⁻¹ and a kon of 907000 M⁻¹ s⁻¹. Moreover, in the assay with human LILRB1-his, the Kd amounted to 25.1 nM, the koff turned out to be 0.00446 s⁻¹ and the kon was 177000 M⁻¹ s⁻¹.

B9: LK-RB2-24.h3 (antibody, human IgG4, kappa, V domains shown)
VH: B7 VH
VL: B7 VL with F83V
notes: Humanized form of LK-RB2-24
In the assay with human LILRB2-his, B9 came in with a dissociation constant (Kd) of 0.852 nM, a koff of 0.000638 s⁻¹ and an on-rate constant (kon) of 749000 M⁻¹ s⁻¹. In the assay with human LILRB1-his, this molecule displayed a Kd of 20.1 nM, a koff of 0.00335 s⁻¹ and an on-rate (kon) of 167000 M⁻¹ s⁻¹.

B10: LK-RB2-12 (antibody, human IgG4 S228P, kappa, V domains shown)
VH: QIQLVQSGPELKKPGETVKISCKASGYTFTTYGMSWVKQTPGKGLKWMGWINIYSGVPTYADDFKGRFVFSLEISASTAHLQINNLKNEDTATYFCARRKDYSGHCFDYWGQGTTLTVSS
VL: DIVLTQSPASLAVSPGQRATISCRASESVDTYGISFMHWYQQKPGQPPKLLIYRASNLESGIPARFSGSGSRTDFTLTINPVETDDVAIYYCQQSKKDPYTFGGGTKLEIKR
B10: the EC50 in assay [1] was determined as 2.34 nM; in assay [2], 0.16 nM; in assay [3], 2.16 nM. In addition, the “Top Inhibition” value in assay [3] was 70.3%.

B11: LK-RB1-59 (antibody, human IgG4 S228P, kappa, V domains shown)
VH: QIQLVQSGPELKKPGETVKISCKASGYTFTTYGMSWVKQAPGKGLKWMGWINTYSGVPTYADDFKGRFAFSLETSASTAYLQINNLKNEDTATYFCARRRIYYGNKGYAMDYWGQGTSVTVSS
VL: DIQMTQSPASLSVSVGETVTITCRASENIYSNLVWYQQKQGKSPQLLVYTATNLADGVPSRFSGSGSGTQFSLKINSLQSEDFGSYYCQHFWGTPWTFGGGTKLEIKR
B11 gave an EC50 in assay [1] of 0.65 nM. Besides, the binding result in assay [2] is listed as “no binding”. Besides, in assay [3], the EC50 was 1.61 nM and the “Top Inhibition” value was found to be 87.3%.

B12: 12D12 (antibody, human IgG4 S228P, kappa, V domains shown)
VH: QVQLQQPGAELVKPGASVRMSCKASGYTFTSYWVHWVKQRPGQGLEWIGVIDPSDSYTSYNQNFKGKATLTVDTSSKTAYIHLSSLTSEDSAVYFCARGERYDGDYFAMDYWGQGTSVTVSS
VL: B11 VL with Q3V, V34A, T50A, G66R, F71Y, S85T, G93N, W96R
For the molecule B12, the binding result in assay [2] is “no binding”. In assay [3], a half-maximal response (EC50) required 1.26 nM and the “Top Inhibition” value was found to be 89.1%.

B13: LK-RB2-2.h1 (antibody, human IgG4, kappa, V domains shown)
VH: EVQLVESGGGLVKPGGSLRLSCAASGFTFSSYAMSWVRQAPGKGLEWVSYISSGGDYFHYADTVKGRFTISRDNAKNSLYLQMNSLRAEDTAVYYCAREGAHYDSSYLAWFAHWGQGTLVTVSS
VL: DIQMTQSPSSVSASVGDRVTITCRASENIYSNLAWYQQKPGKAPKLLIYAATNLAEGVPSRFSGSGSGTDYTLTISSLQPEDFATYYCQQFWDNPLTFGQGTKLEIKR
notes: Humanized form of LK-RB2-2
Regarding B13, in the assay with human LILRB2-his, binding was characterised by a dissociation constant (Kd) of 0.161 nM, the koff came out at 0.000123 s⁻¹ and the on-rate constant (kon) was found to be 766000 M⁻¹ s⁻¹.

B14: LK-RB2-2.h3 (antibody, human IgG4, kappa, V domains shown)
VH: B13 VH with S49A, A97T
VL: B13 VL
notes: Humanized form of LK-RB2-2
In the assay with human LILRB2-his, B14 gave a Kd of 0.201 nM, a koff of 0.000129 s⁻¹ and a kon of 642000 M⁻¹ s⁻¹.

B15: LK-RB2-2.h2 (antibody, human IgG4, kappa, V domains shown)
VH: B13 VH
VL: B13 VL with I48V
notes: Humanized form of LK-RB2-2
In the assay with human LILRB2-his, B15 gave an equilibrium dissociation constant (Kd) of 0.208 nM, a koff of 0.00014 s⁻¹ and a kon of 673000 M⁻¹ s⁻¹.
